B1: GPS3-F11-MPT4: fusion protein, SEQ ID NO: 20 (protein)
chain: MQLLNPPQKGKKAVEFDFNKYMDSKAMTVNEALNKAIPLRYPQKIYESMRYSLLAGGKRVRPVLCIAACELVGGTEELAIPTACAIEMIHTMSLMHDDLPCIDNDDLRRGKPTNHKIFGEDTAVTAGNALHSYAFEHIAVSTSKTVGADRILRMVSELGRATGSEGVMGGQMVDIASEGDPSIDLQTLEWIHIHKTAMLLECSVVCGAIIGGASEIVIERARRYARCVGLLFQVVDDILDVTKSSDELGKTAGKDLISDKATYPKLMGLEKAKEFSDELLNRAKGELSCFDPVKAAPLLGLADYVAFRQNGGAEAAAKEAAAKAGGSGGGSGGGGSGGSGGGGSGGGGSMSDNSIATKILNFGHTCWKLQRPYVVKGMISIACGLFGRELFNNRHLFSWGLMWKAFFALVPILSFNFFAAIMNQIYDVDIDRINKPDLPLVSGEMSIETAWILSIIVALTGLIVTIKLKSAPLFVFIYIFGIFAGFAYSVPPIRWKQYPFTNFLITISSHVGLAFTSYSATTSALGLPFVWRPAFSFIIAFMTVMGMTIAFAKDISDIEGDAKYGVSTVATKLGARNMTFVVSGVLLLNYLVSISIGIIWPQVFKSNIMILSHAILAFCLIFQTRELALANYASAPSRQFFEFIWLLYYAEYFVYVFI
modifications: GPS3-F11-MPT4, geranyl diphosphate synthase, membrane-bound prenyltransferase fusion protein
B2: GPS2-F11-MPT4: fusion protein, SEQ ID NO: 21 (protein)
chain: MKDVSLSSFDAHDLDLDKFPEVVRDRLTQFLDAQELTIADIGAPVTDAVAHLRSFVLNGGKRIRPLYAWAGFLAAQGHKNSSEKLESVLDAAASLEFIQACALIHDDIIDSSDTRRGAPTVHRAVEADHRANNFEGDPEHFGVSVSILAGDMALVWAEDMLQDSGLSAEALARTRDAWRGMRTEVIGGQLLDIYLESHANESVELADSVNRFKTAAYTIARPLHLGASIAGGSPQLIDALLHYGHDIGIAFQLRDDLLGVFGDPAITGKPAGDDIREGKRTVLLALALQRADKQSPEAATAIRAGVGKVTSPEDIAVITEHIRATGAEEEVEQRISQLTESGLAHLDDVDIPDEVRAQLRALAIRSTERRMGGAEAAAKEAAAKAGGSGGGSGGGGSGGSGGGGSGGGGSMSDNSIATKILNFGHTCWKLQRPYVVKGMISIACGLFGRELFNNRHLFSWGLMWKAFFALVPILSFNFFAAIMNQIYDVDIDRINKPDLPLVSGEMSIETAWILSIIVALTGLIVTIKLKSAPLFVFIYIFGIFAGFAYSVPPIRWKQYPFTNFLITISSHVGLAFTSYSATTSALGLPFVWRPAFSFIIAFMTVMGMTIAFAKDISDIEGDAKYGVSTVATKLGARNMTFVVSGVLLLNYLVSISIGIIWPQVFKSNIMILSHAILAFCLIFQTRELALANYASAPSRQFFEFIWLLYYAEYFVYVFI
modifications: GPS2-F11-MPT4, geranyl diphosphate synthase, membrane-bound prenyltransferase fusion protein
B3: MPT26 (protein)
chain: MSDNSIATKILNFGHTCWKLQRPYVVKGMISIACGLFGKELLHNTNLISWGLMWKAFFALVPILSFNFFAAIMNQIYDVDIDRINKPDLPLVSGEMSIETAWILSIIVALTGLIVTIKLKSAPLFVFIYIFGIFAGFAYSVPPIRWKQNPSTNFLITISSHVGLAFTSYSATTSALGLPFVWRPAFSFIIAFMTVMGMTIAFAKDISDIEGDAKYGVSTVATKLGARNMTFVVSGVLLLNYVAAILAGIIWPQAFNSNVMLLSHAILAFWLILQTRDFALTNYDPEAGRRFFEFIWLLYYAEYFVYVFI
modifications: MPT26 (recombinant membrane-bound prenyltransferase)
B4: MPT21 (protein)
chain: MSDNSIATKILNFGHTCWKLQRPYVVKGMISIACGLFGKELLHNTNLISWGLMWKAFFALVPILSFNFFAAIMNQIYDVDIDRINKPDLPLVSGEMSIETAWILSIIVALTGLIVTIKLKSAPLFVFIYIFGIFAGFAYSVPPIRWKQNPSTNFLITISSHVGLAFTSYYASRAALGLPFELRPSFTFLLAFMTVMGMTIAFAKDISDIEGDAKYGVSTVATKLGARNMTFVVSGVLLLNYVAAILAGIIWPQAFNSNVMLLSHAILAFCLIFQTRELALANYASAPSRQFFEFIWLLYYAEYFVYVFI
modifications: MPT21 (recombinant membrane-bound prenyltransferase)
B5: MPT31 (protein)
chain: MSDNSIATKILNFGHACWKLQRPYVVKGMISIACGLFGRELLHNTNLISWGLMWKAFFALVPILSFNFFAAIMNQIYDLHIDRINKPDLPLASGEISVNTAWIMSIIVALTGLIVTIKLKSAPLFVFIYIFGIFAGFAYSVPPIRWKQNPSTNFLITISSHVGLAFTSYYASRAALGLPFELRPSFTFLLAFMTVMGMTIAFAKDISDIEGDAKYGVSTVATKLGARNMTFVVSGVLLLNYLVSISIGIIWPQVFKSNIMILSHAILAFWLILQTRDFALTNYDPEAGRRFFEFIWLLYYAEYLVYVFI
modifications: MPT31 (recombinant membrane-bound prenyltransferase)

Experiments:
olivetolic acid [1] = assay: Fusions of different GPSs with MPT4, in vivo assay (Example 7); format: cell-based, Yarrowia; settings: 1 mM olivetolic acid, 72 h quench; for CBGA / FCBGA: 2% glycerol, strain sCL-SE-0128; for CBGA/FCBGA: product ratio
Procedure: As described below, plasmids pCL-SE-0337, 0406, 0452 and 0453 were transformed into strain sCL-SE-0128. Multiple colonies per transformation were precultured for 24 h in YNB containing glycerol (2%), casamino acids (0.5%), and MES (100 mM pH 6.5). Pre-culture was used to inoculate assay medium comprised of YNB containing glycerol (2%), casamino acids (0.5%), MES (100 mM pH 6.5), and olivetolic acid (1 mM). Cultures were quenched after 72 h total growth and assayed for CBGA and F-CBGA. Averages and standard deviations were calculated from replicates.
However, sCL-SE-0128 expresses HMGR and GPS1.1 to increase intracellular GPP levels for prenylation of OA to CBGA. The plasmids that were transformed contain a gene expressing a fusion between two different GPSs and a prenyl-transferase. The same linker is used for all constructs. […] Additionally, as illustrated by GPS2 (pCL-SE-0453), certain GPS-MPT combinations result in very high CBGA/ FCBGA ratios.
(§1) Overnight YPD (10 g/L yeast extract, 20 g/L peptone, 2% dextrose) cultures were inoculated from glycerol stocks of the appropriate strain and grown at 30° C. with 250 rpm shaking. Once cultures had reached an OD600 of 4-6, cultures were centrifuged at 500×g for 5 min, supernatants were discarded, and cell pellets were resuspended in equal volume of water. Resuspended cells were centrifuged at 500×g for 5 min, supernatants were discarded, and cells were resuspended in a volume (75 μL×OD×Vculture) of transformation cocktail (45% PEG-400, 0.1 M LiAc, 0.1 M DTT, and 25 ug/100 μL SS Salmon Sperm DNA). For each transformation, >1 μg of plasmid DNA was added to 55 μL cells/transformation cocktail and vortexed for 2 s. Transformations were incubated at 39° C. for 1 h with 250 rpm shaking. Transformations were resuspended in 750 μL YPD with 1 M sorbitol and recovered at 30° C. overnight with 250 rpm shaking. The next day, transformations were centrifuged at 500×g for 5 min, supernatants were discarded, and cell pellets were resuspended in 750 YPD. Resuspended transformations were plated on YPD with appropriate selection or YNBD (6.71 g/L yeast nitrogen base+nitrogen, 0.5% casamino acids, 2% dextrose) agar plates and grown at 30° C. for 2 days. Individual colonies were patched onto YPD plates with appropriate selection or YNBD plates and grown at 30° C. overnight. Patches were used to inoculate 0.5 mL YPD with appropriate selection or YNBD precultures in 96 w blocks and grown at 30° C. for 24-48 h with 1000 rpm shaking. For assays, 0.5 mL YPD with appropriate selection or YNBD cultures containing substrate were inoculated with 2 μL from precultures and grown at 30° C. for 2-4 days with 1000 rpm shaking with 2% glucose added every 24 h. Assay cultures were quenched by addition of 0.5 mL ethanol with 0.2% formic acid and 0.5 mg/mL pentyl-benzoic acid. Precipitates were pelleted by centrifuging at 4600×g for 10 min and then 200 μL was transferred to fresh plates, sealed, and analyzed via HPLC.
(§2) All samples were quenched with equal volume of EtOH containing 0.2 mg/mL internal standard (3,5-Diisopropyl-2-hydroxybenzoic acid CAS #2215-21-6) centrifuged, and clarified solutions were analyzed by HPLC-MS
(§3) • Column: 2.1×50 mm COSMOCORE PBr (Nacalai USA, Inc.) • Mobile Phase: A; 0.1% formic acid in water, B; 0.1% formic acid in acetonitrile • Flow: 0.45 mL/min • Temp: % 50 Celsius • Gradient: 20%B at 0 min, 70%B at 2.3 min, 89% B at 4.2 min, 20% B at 4.3 min, 20%B at 6 min

divarinic acid (DVA) = assay: Screening of MPT library hits in Yarrowia, DVA feed (Example 2); format: cell-based; settings: DVA Feed (96 h); for CBGVA: 2 mM DVA, minimal media, 0.5% ethanol, strain sCL-SE-0128, product accumulated; for CBGVA/FCBGVA: product ratio
Procedure: (§4) As described in detail below, plasmid pCL-SE-0337.MPT21,26,31 were transformed into strain sCL-SE-0128 and 4 separate colonies of each were patched and precultured for 48 h. Assay cultures consisted of minimal media with 100 mM MES pH 6.5, 0.5% ethanol and 2 mM olivetolic or divarinic acid (DVA). Cultures with olivetolic acid were quenched with equal volume of ethanol after 48 h total growth while cultures with DVA with quenched after 96 h total growth. Enzymes produced CBGA and FCBGA from olivetolic acid and CBGVA and FCBGVA from DVA. Averages and standard deviations were calculated from replicates.
as §1, §2, §3

olivetolic acid [2] = assay: Screening of MPT library hits in Yarrowia, OA feed (Example 2); format: cell-based; settings: OA Feed (48 h); for CBGA: 2 mM olivetolic acid, minimal media, 0.5% ethanol, strain sCL-SE-0128, product accumulated; for CBGA/FCBGA: product ratio
Procedure: as §4, §1, §2, §3

olivetolic acid [3] = assay: MPT fusions with GPS1.1 vs unfused MPTs, OA feed (Example 8, Table 9); format: cell-based, Yarrowia; settings: 2 mM olivetolic acid, 48 h quench; for CBGA / FCBGA: 2% glucose, strain sCL-SE-0128; for CBGA/FCBGA: product ratio
Procedure: (§5) As described below, plasmids pCL-SE-0406, pCL-SE-0664, pCL-SE-0663, pCL-SE-0662, pCL-SE-0380 (MPT4), pCL-SE-0337.MPT21, pCL-SE-0337.MPT26, and pCL-SE-0337.MPT31 were transformed into strain sCL-SE-0128. Multiple colonies per transformation were precultured for 48 h in YNB containing glucose (2%), casamino acids (0.5%), and MES (100 mM pH 6.5). Pre-culture was used to inoculate assay medium comprised of YNB containing glucose (2%), casamino acids (0.5%), MES (100 mM pH 6.5), and olivetolic acid (2 mM). Cultures were quenched with equal volume of ethanol after 48 h total growth and assayed for CBGA and FCBGA. Averages and standard deviations were calculated from replicates.
as §1, §2, §3

divarinic acid = assay: MPT fusions with GPS1.1 vs unfused MPTs, DVA feed (Example 9, Table 11); format: cell-based, Yarrowia; settings: 2 mM divarinic acid
Procedure: as §5, with “pCL-SE-0337.MPT21,” for “pCL-SE-0337.MPT21, pCL-SE-0337.MPT26, and pCL-SE-0337.MPT31”, “divarinic” for “olivetolic”, “quenched” for “quenched with equal volume of ethanol”, “CBGVA” for “CBGA”, “FCBGVA.” for “FCBGA.”
as §1, §2, §3

[4] = 2% glucose, quenched after 48 h, strain sCL-SE-0128

Row | Molecule | CBGA (olivetolic acid [1]) [µM] | FCBGA (olivetolic acid [1]) [µM] | CBGA/FCBGA (olivetolic acid [1]) | CBGVA (divarinic acid (DVA)) [µM] | CBGVA/FCBGVA (divarinic acid (DVA)) | CBGA (olivetolic acid [2]) [µM] | CBGA/FCBGA (olivetolic acid [2]) | CBGA (olivetolic acid [3]) [µM] | FCBGA (olivetolic acid [3]) [µM] | CBGA/FCBGA (olivetolic acid [3]) | CBGVA (divarinic acid; [4]) [µM] | FCBGVA (divarinic acid; [4]) [µM] | CBGVA/FCB (divarinic acid; 48 h, product ratio)
1 | B1 | 255 ± 22 | 41 ± 3 | 6.2 |  |  |  |  |  |  |  |  |  | 
2 | B2 | 282 ± 69 | 11 ± 2 | 26.8 |  |  |  |  |  |  |  |  |  | 
3 | B3 |  |  |  | 620 ± 134 | 13.7 | 261 ± 62 | 4.5 | 61 ± 5 | 14 ± 1 | 4.4 |  |  | 
4 | B4 |  |  |  | 647 ± 45 | 6.0 | 310 ± 11 | 3.1 | 109 ± 27 | 43 ± 10 | 2.6 | 9 ± 3 | 1 ± 1 | 10.8
5 | B5 |  |  |  | 260 ± 79 | 22.6 | 175 ± 63 | 13.9 | 40 ± 12 | 3 ± 2 | 13.4 |  |  | 

From patent publication US20240228986A1, “ENGINEERED CELLS, ENZYMES, AND METHODS FOR PRODUCING CANNABINOIDS” (priority 2021, published 2024)
